The chains are these.
B1: 62N 106F 117A 72A (protein, listed as Rattus norvegicus)
chain: AFDGTWKVDRNENYEKFMEKMGINVVKRKLGAHDNLKLTITQEGNKFTVKESSNFRNIDVVNELGVDFAYSAADGTELTGTWTMEGNKLVGKFKRVDNGKELIAVFEISGNELIQTATYEGVEAKRIFKKE
modifications: PEPTIDE (1)...(131) wild-type rat intestinal fatty acid binding protein
B2: 72G 74F (protein, listed as Rattus norvegicus)
chain: B1 chain with N62F, A72G, D74F, F106R, A117Y
modifications: PEPTIDE (1)...(131) wild-type rat intestinal fatty acid binding protein
B3: 18I 31L 73L 72A (protein, listed as Rattus norvegicus)
chain: B1 chain with M18I, G31L, N62F, A73L, F106R, A117Y
modifications: PEPTIDE (1)...(131) wild-type rat intestinal fatty acid binding protein
B4: 14L 18T 31E 73G 117G 72A (protein, listed as Rattus norvegicus)
chain: B1 chain with Y14L, M18T, G31E, N62F, A73G, F106R, A117G
modifications: PEPTIDE (1)...(131) wild-type rat intestinal fatty acid binding protein
B5: 72H 73Y 74G (protein, listed as Rattus norvegicus)
chain: B1 chain with N62F, A72H, A73Y, D74G, F106R, A117Y
modifications: PEPTIDE (1)...(131) wild-type rat intestinal fatty acid binding protein
B6: 21W 78I 72A (protein, listed as Rattus norvegicus)
chain: B1 chain with M21W, N62F, L78I, F106R, A117Y
modifications: PEPTIDE (1)...(131) wild-type rat intestinal fatty acid binding protein
B7: 14L 18S 31L 73V 117A 72A (protein, listed as Rattus norvegicus)
chain: B1 chain with Y14L, M18S, G31L, N62F, A73V, F106R
modifications: PEPTIDE (1)...(131) wild-type rat intestinal fatty acid binding protein
B8: 38Q 106W 117A 72A (protein, listed as Rattus norvegicus)
chain: B1 chain with L38Q, N62F, F106W
modifications: PEPTIDE (1)...(131) wild-type rat intestinal fatty acid binding protein
B9: 72T 73Q 74S (protein, listed as Rattus norvegicus)
chain: B1 chain with N62F, A72T, A73Q, D74S, F106R, A117Y
modifications: PEPTIDE (1)...(131) wild-type rat intestinal fatty acid binding protein
B10: 14V 18L 73V 117A 72A (protein, listed as Rattus norvegicus)
chain: B1 chain with Y14V, M18L, N62F, A73V, F106R
modifications: PEPTIDE (1)...(131) wild-type rat intestinal fatty acid binding protein
B11: 21W 78F 72A (protein, listed as Rattus norvegicus)
chain: B1 chain with M21W, N62F, L78F, F106R, A117Y
modifications: PEPTIDE (1)...(131) wild-type rat intestinal fatty acid binding protein
B12: 73N 72A 74F (protein, listed as Rattus norvegicus)
chain: B1 chain with N62F, A73N, D74F, F106R, A117Y
modifications: PEPTIDE (1)...(131) wild-type rat intestinal fatty acid binding protein

Positions count from the first letter of the chain named.

One experiment can be described thus: Probe fluorescence ratio response to palmitic acid relative to ADIFAB2. The following applies: response relative to ADIFAB2. The experiment is classed as binding. The gist of the method: (§1)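 Each fatty acid's response was expressed relative to ADIFAB2, the rI-FABP-L72A probe, as ΔR/ΔRreference. ΔR is the change in the background-corrected two-wavelength intensity ratio R=Fλ1/Fλ2 from its analyte-free baseline R0. Emission was read near about 420-480 nm for unbound and about 495-580 nm for FFA-bound probe.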
As to B1, the “DR/DR PA” value stood at 0.430.

For the molecule B2, the “DR/DR PA” value worked out at 2.304.

As to B3, the “DR/DR PA” value worked out at 1.075.

Take B4: the “DR/DR PA” value is recorded as 0.712.

In the case of B5, the “DR/DR PA” value stood at 0.486.

Regarding B6, the “DR/DR PA” value came out at 2.759.

Regarding B7, the “DR/DR PA” value is 0.028.

With B8, the “DR/DR PA” value came to 0.444.

Consider B9, for which the “DR/DR PA” value was 2.646.

In the case of B10, the “DR/DR PA” value is given as 0.249.

B11: the “DR/DR PA” value is recorded as 0.851.

Consider B12, for which the “DR/DR PA” value stood at 1.468.

A short description of the next experiment: Probe fluorescence ratio response to linoleic acid relative to ADIFAB2. The experiment is classed as binding. The following applies: response relative to ADIFAB2. The gist of the method: as §1
On to B1, for which the “DR/DR LA” value stood at 0.985.

B2: the “DR/DR LA” value is reported as 2.116.

As for B3, the “DR/DR LA” value is given as 0.682.

B4: the “DR/DR LA” value stood at 1.107.

For the molecule B5, the “DR/DR LA” value is on record as 0.472.

For the molecule B6, the “DR/DR LA” value is listed as 4.381.

As for B7, the “DR/DR LA” value stood at 0.534.

Take B8: the “DR/DR LA” value stood at 0.860.

On to B9, for which the “DR/DR LA” value stood at 2.713.

On to B10, for which the “DR/DR LA” value is recorded as 0.557.

Turning to B11, the “DR/DR LA” value worked out at 1.597.

For the molecule B12, the “DR/DR LA” value was 0.976.

The next experiment can be described thus: Probe fluorescence ratio response to palmitoleic acid relative to ADIFAB2. The experiment is classed as binding. The following applies: response relative to ADIFAB2. The gist of the method:
as §1
With B1, the “DR/DR POA” value is listed as 0.341.

Take B2: the “DR/DR POA” value was 2.996.

In the case of B3, the “DR/DR POA” value was determined as 0.781.

Turning to B4, the “DR/DR POA” value amounted to 1.072.

For the molecule B5, the “DR/DR POA” value stood at 0.986.

Consider B6, for which the “DR/DR POA” value is reported as 3.284.

Turning to B7, the “DR/DR POA” value is recorded as −0.003.

With B8, the “DR/DR POA” value was determined as 0.970.

As for B9, the “DR/DR POA” value is 3.110.

Regarding B10, the “DR/DR POA” value is given as 0.597.

Turning to B11, the “DR/DR POA” value worked out at 1.217.

As for B12, the “DR/DR POA” value came to 2.256.

A further experiment is described as follows: Probe fluorescence ratio response to linolenic acid relative to ADIFAB2. The experiment is classed as binding. Particulars: response relative to ADIFAB2. The method in brief:
as §1
B1: the “DR/DR LNA” value was 0.756.

Regarding B2, the “DR/DR LNA” value came out at 1.970.

Take B3: the “DR/DR LNA” value turned out to be 0.857.

B4: the “DR/DR LNA” value was 1.133.

As for B5, the “DR/DR LNA” value turned out to be 0.591.

Turning to B6, the “DR/DR LNA” value amounted to 4.024.

For B7, the “DR/DR LNA” value turned out to be 0.673.

Turning to B8, the “DR/DR LNA” value stood at 0.795.

Regarding B9, the “DR/DR LNA” value stood at 2.419.

On to B10, for which the “DR/DR LNA” value is on record as 0.624.

For B11, the “DR/DR LNA” value is given as 1.694.

Turning to B12, the “DR/DR LNA” value was 1.299.

The next experiment can be described thus: Probe fluorescence ratio response to stearic acid relative to ADIFAB2. The experiment is classed as binding. The following applies: response relative to ADIFAB2. The method in brief: as §1
With B1, the “DR/DR SA” value came to 0.490.

Turning to B2, the “DR/DR SA” value came out at 0.669.

In the case of B3, the “DR/DR SA” value was found to be 0.390.

On to B4, for which the “DR/DR SA” value is on record as 0.413.

For B5, the “DR/DR SA” value was 0.052.

As to B6, the “DR/DR SA” value amounted to 3.396.

For the molecule B7, the “DR/DR SA” value turned out to be 0.007.

As to B8, the “DR/DR SA” value stood at 0.281.

For B9, the “DR/DR SA” value was 1.792.

Consider B10, for which the “DR/DR SA” value is 0.105.

Turning to B11, the “DR/DR SA” value was found to be 1.161.

For the molecule B12, the “DR/DR SA” value is recorded as 0.271.

The next experiment is described as follows: Probe fluorescence ratio response to oleic acid relative to ADIFAB2. The experiment is classed as binding. The following applies: response relative to ADIFAB2. The gist of the method:
as §1
Turning to B1, the “DR/DR OA” value was determined as 0.864.

Regarding B2, the “DR/DR OA” value stood at 1.490.

B3: the “DR/DR OA” value is 0.549.

B4: the “DR/DR OA” value stood at 1.096.

In the case of B5, the “DR/DR OA” value is given as 0.140.

Consider B6, for which the “DR/DR OA” value stood at 4.703.

On to B7, for which the “DR/DR OA” value came to 0.020.

Consider B8, for which the “DR/DR OA” value is given as 0.899.

Consider B9, for which the “DR/DR OA” value came out at 2.676.

Take B10: the “DR/DR OA” value amounted to 0.307.

Consider B11, for which the “DR/DR OA” value stood at 1.843.

Regarding B12, the “DR/DR OA” value was determined as 0.775.

The nature of another experiment: Probe fluorescence ratio response to arachidonic acid relative to ADIFAB2. Particulars: arachidonic acid; response relative to ADIFAB2. The experiment is classed as binding. The gist of the method:
as §1
With B1, the “DR/DR AA” value is recorded as 1.265.

On to B2, for which the “DR/DR AA” value was determined as 1.669.

As to B3, the “DR/DR AA” value is listed as 0.626.

With B4, the “DR/DR AA” value came out at 1.236.

With B5, the “DR/DR AA” value is 0.600.

As to B6, the “DR/DR AA” value was determined as 6.322.

Take B7: the “DR/DR AA” value was found to be 0.951.

As to B8, the “DR/DR AA” value is reported as 1.078.

In the case of B9, the “DR/DR AA” value is listed as 2.166.

Take B10: the “DR/DR AA” value is recorded as 0.926.

In the case of B11, the “DR/DR AA” value is reported as 4.264.

As for B12, the “DR/DR AA” value is 0.870.

Values taken from patent US20060257938A1, “Method of screening for drugs that block ligand binding to a lipid binding protein” (priority 2005, published 2006).
